Test results taken from publication PMC8971729 (2022).

B1: human CXADR Fc chimera protein (CAR) (Fc fusion)
chain: LSITTPEEMIEKAKGETAYLPCKFTLSPEDQGPLDIEWLISPADNQKVDQVIILYSGDKIYDDYYPDLKGRVHFTSNDLKSGDASINVTNLQLSDIGTYQCKVKKAPGVANKKIHLVVLVKPSGARCYVDGSEEIGSDFKIKCEPKEGSLPLQYEWQKLSDSQKMPTSWLAEMTSSVISVKNASSEYSGTYSCTVRNRVGSDQCLLRLNVVPPSNKAG

Tests used:
Experiment in all cases: SPR
[1] = target: HAdV-D10 fiber knob protein (human adenovirus type 10 (HAdV-D10))
[2] = target: T1, human CD46 protein (His tag) (human, UniProt P15529)
T1 chain: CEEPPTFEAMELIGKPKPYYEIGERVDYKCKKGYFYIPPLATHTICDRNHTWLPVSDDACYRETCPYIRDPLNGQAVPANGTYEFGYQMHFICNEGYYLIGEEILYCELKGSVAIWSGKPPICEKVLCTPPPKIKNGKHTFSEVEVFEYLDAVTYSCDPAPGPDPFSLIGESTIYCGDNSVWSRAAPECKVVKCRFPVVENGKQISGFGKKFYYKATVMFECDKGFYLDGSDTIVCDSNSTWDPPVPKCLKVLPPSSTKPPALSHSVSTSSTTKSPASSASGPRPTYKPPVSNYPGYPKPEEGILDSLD

[3] = target: T2, Human desmoglein-2 Fc chimera protein (DSG2) (human, UniProt Q14126)
T2 chain: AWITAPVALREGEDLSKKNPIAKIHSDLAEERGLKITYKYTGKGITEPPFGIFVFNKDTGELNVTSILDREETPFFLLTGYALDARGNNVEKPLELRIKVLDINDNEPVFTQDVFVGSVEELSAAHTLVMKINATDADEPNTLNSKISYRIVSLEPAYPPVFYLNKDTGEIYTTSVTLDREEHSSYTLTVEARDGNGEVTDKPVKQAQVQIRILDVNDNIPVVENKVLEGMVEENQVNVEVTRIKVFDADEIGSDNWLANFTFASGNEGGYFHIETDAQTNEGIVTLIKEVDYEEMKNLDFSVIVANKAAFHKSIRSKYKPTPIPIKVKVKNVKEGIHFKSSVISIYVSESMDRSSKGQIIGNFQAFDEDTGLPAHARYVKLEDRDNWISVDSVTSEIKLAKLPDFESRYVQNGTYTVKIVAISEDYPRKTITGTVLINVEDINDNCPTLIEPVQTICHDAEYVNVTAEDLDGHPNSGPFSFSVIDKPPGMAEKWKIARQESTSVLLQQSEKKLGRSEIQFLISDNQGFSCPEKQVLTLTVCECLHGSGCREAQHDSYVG

[4] = target: T1, human CD46 protein (His tag)
[5] = target: B1

B1
koff [1]: 0.0019 s⁻¹

B2: HAdV-B3 fiber knob (domain or fragment)
chain: NSIALKNNTLWTGPKPEANCIIEYGKQNPDSKLTLILVKNGGIVNGYVTLMGASDYVNTLFKNKNVSINVELYFDATGHILPDSSSLKTDLELKYKQTADFSARGFMPSTTAYPFVLPNAGTHNENYIFGQCYYKASDGALFPLEVTVMLNKRLPDSRTSYVMTFLWSLNAGLAPETTQATLITSPFTFSYIREDD
koff [2]: 0.025 s⁻¹
Kd [3]: 66.9 µM
Kd [4]: 0.16 µM

B3: HAdV-C5 fiber knob protein (domain or fragment)
chain: KNNDKLTLWTTPAPSPNCRLNAEKDAKLTLVLTKCGSQILATVSVLAVKGSLAPISGTVQSAHLIIRFDENGVLLNNSFLDPEYWNFRNGDLTEGTAYTNAVGFMPNLSAYPKSHGKTAKSNIVSQVYLNGDKTKPVTLTITLNGTQETGDTTPSAYSMSFSWDWSGHNYINEIFATSSYTFSYIAQE
koff [5]: 0.0019 s⁻¹
